Tests used:
[1] = target: SARS-CoV-2 nucleocapsid protein (recombinant) (SARS-CoV-2, UniProt P0DTC9 1-419); test: SPR (ProteOn XPR36), N immobilised on chip, sdAb in flow, 25 C
[2] = target: SARS-CoV-2 receptor-binding domain (SARS-CoV-2, UniProt P0DTC2 319-541); test: direct-binding MagPlex assay, biotinylated sdAb on RBD-coated microspheres

Row | Binder | Kd [1] [nM] | koff [1] [s⁻¹] | kon [1] [M⁻¹ s⁻¹] | binding result [2]
1 | sdAb clone E10 (VHH) VHH: DVQLQASGGGLVQAGGSLRLSCAASARTFYTMGWFRQVLGKDREFVGAIRWGVYATTRYADSVKGRFSISRDDATNTVALQMNSLKPEDTAVYYCAARAGPLGFELSATSSAEYDYWGQGTQVTVSS | 14 | 0.00095 | 69000 | no binding
2 | sdAb clone A9 (VHH) VHH: EVQLQASGGGLVQAGESLRLSCVVSGGAFRIMDMGWFRQVPGKQREVVGVISSGGYTNYADSVKGRFTISRDNAKRTVYLHMNSLKPEDTAVYYCNIIPKSDQGAVNTWGKGTLVSVSS |  |  |  | no binding
3 | sdAb clone B6 (VHH, also called Bt-B6) VHH: EVQLQASGGGLVQAGDSLRLSCVAVSGRTISTFAMGWFRQAPGKEREFVATINWSGSSARYADPVEGRFTISRDDAKNTVYLEMSSLKPGDSAVYYCASGRYLGGITSYSQGDFAPWGQGTQVTVSS | 1.6 | 0.0003 | 190000 | no binding
